The source of these data is PMC12431651.

Holding throughout (experiment): ITC; MED25 ACID (200 or 250 µM, syringe) titrated into NS1 (20 µM, cell); 20 mM Tris pH 8.0, 200 mM NaCl, 1 mM TCEP, 25°C; one set of sites model
Background: ITC needs no label: the signal is the heat of the interaction.

Test [1] addresses NS1 F56A (human respiratory syncytial virus subgroup A, Long strain).
The target of test [2] is RSV NS1, full-length wild type (aa 1–139) (human respiratory syncytial virus subgroup A, Long strain).
The target of test [3] is NS1 L133A (human respiratory syncytial virus subgroup A, Long strain).
The target of test [4] is NS1 Y125A (human respiratory syncytial virus subgroup A, Long strain).
The target of test [5] is NS1 E110A (human respiratory syncytial virus subgroup A, Long strain).
Test [6] concerns the target NS1 I54A (human respiratory syncytial virus subgroup A, Long strain).
Test [7] deals with NS1 M122A (human respiratory syncytial virus subgroup A, Long strain).
The target in test [8] is NS1 K112A (human respiratory syncytial virus subgroup A, Long strain).

B1: MED25 ACID (aa 389–543) (domain or fragment)
chain: LGGQQSVSNKLLAWSGVLEWQEKPKPASVDANTKLTRSLPCQVYVNHGENLKTEQWPQKLIMQLIPQQLLTTLGPLFRNSRMVQFHFTNKDLESLKGLYRIMGNGFAGCVHFPHTAPCEVRVLMLLYSSKKKIFMGLIPYDQSGFVNGIRQVITN
B1: the Kd is 198 nM in test [1]; 44 nM in test [2]; 2230 nM in test [3]; 80 nM in test [4]; 1540 nM in test [5]; 45 nM in test [6]. For the same molecule, the Kd in test [7] stood at 606 nM; in test [8], 79 nM. Besides, the dH in test [1] was -8.3 kcal/mol; in test [2] it was -10.1 kcal/mol; in test [3], -7.6 kcal/mol; in test [4], -11.9 kcal/mol; in test [5], -7.7 kcal/mol; in test [6], -10.7 kcal/mol. The dH is -10.4 kcal/mol in test [7] and -10.7 kcal/mol in test [8]. The stoichiometry N in test [1] was 0.8; in test [2], 0.73; in test [3], 0.44; in test [4], 0.53; in test [5], 0.86; in test [6], 0.79. Besides, the stoichiometry N is 0.71 in test [7] and 0.66 in test [8].

In general, Kd refers to a measure of binding affinity in units of concentration. The stoichiometry N is a count of units in the complex or per binding partner.
